Measurements published in article PMC11033290.

Biological target: Recombinant MDP1 (Mycobacterial DNA-binding protein 1) of M. tuberculosis produced in Escherichia coli (Mycobacterium tuberculosis) (UniProt P9WMK7)
Assay: cross-linking; glutaraldehyde 0.2%, room temperature, 30 min; 4 µM or 8 µM protein in 150-1500 mM NaCl; SDS-PAGE on a 4-15% gradient gel

## Recombinant MDP1 (Mycobacterial DNA-binding protein 1) of M. tuberculosis produced in Escherichia coli (from UniProt P9WMK7 3-216) (natural protein)
  stoichiometry N: 2
